“And” between values parts separate entries of the source, which are not always exact repeats. Equal values may be shown once.

The results in this text go back to article PMC3094755.

This series addresses PARP-1 F1 (Homo sapiens) (UniProt P09874). Nature of the series: fluorescence anisotropy. The following applies: 5'-phosphate; FA: 50 mM Tris-HCl pH 7, 150 uM ZnSO4, 4 mM DTT, 0-200 mM NaCl, 25 C, 10 nM DNA (mutants 25 nM DNA, 25 mM NaCl); EMSA: 50 mM Tris-HCl pH 7.4, 150 uM ZnSO4, 4 mM.

Chain of PARP-1 F1 (Homo sapiens) (P09874 1-108): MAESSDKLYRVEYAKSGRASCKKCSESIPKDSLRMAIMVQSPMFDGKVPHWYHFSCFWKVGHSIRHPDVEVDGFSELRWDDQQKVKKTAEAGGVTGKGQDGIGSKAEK

The Kd is the free concentration of one partner at which half of the binding sites on the other are occupied at equilibrium, for simple one-to-one binding. A high value points to lower affinity. In the case of “CGGTCGATCGTAAGATCGACCGGCGCTGGAGCTTGCTCCAGCGC [44-nt nicked dumbbell, 5'-phosphate, fluorescein-dT]”, the Kd was 6.6 µM and 1.1 µM.
